Laboratory results reported in US20170304435A1 (GOVERNING COUNCIL OF THE UNIVERSITY OF TORONTO, published 2017).

T1: TRAF2, endogenous in Jurkat cells (UniProt Q12933 2-501, limits assumed)
T1 construct: Endogenous protein probed by immunoblot with rabbit anti-TRAF2 (sc-876)
T1 sequence (looked up): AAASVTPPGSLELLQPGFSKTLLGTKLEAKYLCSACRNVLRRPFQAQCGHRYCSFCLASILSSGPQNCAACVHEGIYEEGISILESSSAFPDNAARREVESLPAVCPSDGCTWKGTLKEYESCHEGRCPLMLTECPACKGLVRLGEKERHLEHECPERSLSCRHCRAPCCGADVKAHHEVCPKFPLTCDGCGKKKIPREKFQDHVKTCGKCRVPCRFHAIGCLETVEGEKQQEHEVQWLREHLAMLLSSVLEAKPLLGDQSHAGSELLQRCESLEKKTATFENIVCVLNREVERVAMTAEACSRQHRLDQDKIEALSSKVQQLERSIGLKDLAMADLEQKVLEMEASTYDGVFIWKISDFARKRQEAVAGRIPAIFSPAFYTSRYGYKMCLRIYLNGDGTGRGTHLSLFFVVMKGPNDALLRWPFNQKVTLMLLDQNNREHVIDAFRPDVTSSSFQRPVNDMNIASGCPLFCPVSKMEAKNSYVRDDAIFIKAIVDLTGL

T2: TRAF6 (ubiquitin ligase, tumor necrosis factor receptor-associated factor 6), endogenous in Jurkat or 293T … (UniProt Q9Y4K3 1-522)
T2 construct: Endogenous protein detected by immunoblot or immunostaining with mouse anti-TRAF6 (sc-8409)
T2 sequence (looked up): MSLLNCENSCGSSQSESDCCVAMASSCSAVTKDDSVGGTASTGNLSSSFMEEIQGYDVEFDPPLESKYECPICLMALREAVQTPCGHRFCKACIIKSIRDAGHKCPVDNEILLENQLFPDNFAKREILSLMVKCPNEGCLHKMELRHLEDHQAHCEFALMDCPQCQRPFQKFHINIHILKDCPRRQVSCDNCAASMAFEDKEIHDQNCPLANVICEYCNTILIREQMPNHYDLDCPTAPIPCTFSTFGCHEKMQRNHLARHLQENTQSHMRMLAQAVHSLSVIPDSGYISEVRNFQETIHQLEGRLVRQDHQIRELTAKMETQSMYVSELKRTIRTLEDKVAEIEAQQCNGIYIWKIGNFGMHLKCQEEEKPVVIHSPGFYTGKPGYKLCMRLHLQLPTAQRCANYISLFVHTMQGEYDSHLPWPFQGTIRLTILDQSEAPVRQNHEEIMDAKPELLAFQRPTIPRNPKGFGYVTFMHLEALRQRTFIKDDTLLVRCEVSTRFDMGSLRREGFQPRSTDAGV

B1: FLAG-TIFA wild type (TRAF-interacting forkhead associated protein A with one N-terminal FLAG sequence), from HBP-treated cells (other, not shown: small tags and cut ends)
chain: MTSFEDADTEETVTCLQMTVYHPGQLQCGIFQSISFNREKLPSSEVVKFGRNSNICHYTFQDKQVSRVQFSLQLFKKFNSSVLSFEIKNMSKKTNLIVDSRELGYLNKMDLPYRCMVRFGEYQFLMEKEDGESLEFFETQFILSPRSLLQENNWPPHRPIPEYGTYSLCSSQSSSPTEMDENES
modifications: phospho-threonine 9 (pT9), found only after treatment with HBP
notes: Forms oligomers after HBP; also called FLAG-TIFA wildtype (wt); Wt
B2: FLAG-TIFA T9A (other, not shown: small tags and cut ends)
chain: MTSFEDADAEETVTCLQMTVYHPGQLQCGIFQSISFNREKLPSSEVVKFGRNSNICHYTFQDKQVSRVQFSLQLFKKFNSSVLSFEIKNMSKKTNLIVDSRELGYLNKMDLPYRCMVRFGEYQFLMEKEDGESLEFFETQFILSPRSLLQENNWPPHRPIPEYGTYSLCSSQSSSPTEMDENES
notes: Point mutant of FLAG-TIFA made with QuickChange II; stably expressed with endogenous TIFA knocked down
B3: FLAG-TIFA E178A (mutation in the TRAF6 binding site) (other, not shown: small tags and cut ends)
chain: MTSFEDADTEETVTCLQMTVYHPGQLQCGIFQSISFNREKLPSSEVVKFGRNSNICHYTFQDKQVSRVQFSLQLFKKFNSSVLSFEIKNMSKKTNLIVDSRELGYLNKMDLPYRCMVRFGEYQFLMEKEDGESLEFFETQFILSPRSLLQENNWPPHRPIPEYGTYSLCSSQSSSPTAMDENES
notes: Point mutant of FLAG-TIFA; stably expressed with endogenous TIFA knocked down; also called TRAF6 (E178A) mutant
B4: FLAG-TIFA G50E/S66A (mutations in the FHA domain) (other, not shown: small tags and cut ends)
chain: MTSFEDADTEETVTCLQMTVYHPGQLQCGIFQSISFNREKLPSSEVVKFERNSNICHYTFQDKQVARVQFSLQLFKKFNSSVLSFEIKNMSKKTNLIVDSRELGYLNKMDLPYRCMVRFGEYQFLMEKEDGESLEFFETQFILSPRSLLQENNWPPHRPIPEYGTYSLCSSQSSSPTEMDENES
notes: Double point mutant of FLAG-TIFA; stably expressed with endogenous TIFA knocked down; also called FHA mutant

Legend:
[1] = molecular target: T1, TRAF2, endogenous in Jurkat cells; assay: FLAG-TIFA immunoprecipitation from Jurkat cells, immunoblot for TRAF2
Protocol: Briefly, cells were lysed in 50 mM Hepes-KOH pH 8.0, 100 mM KCl, 2 mM EDTA, 0.1% NP40, 10% glycerol. Soluble cell lysates were pre-cleared for 2 hr with mouse IgG agarose (Sigma) and immunoprecipitated overnight at 4° C. Proteins eluted using 0.5 M NH₄OH pH 11 (for mass-spectrometry), or 3× FLAG-peptide (Sigma) (immunoblot analysis). […] Data were analyzed by Scaffold PTM (Proteome).

[2] = molecular target: the molecule itself; assay: native PAGE and FLAG immunoblot, HBP-treated Jurkat cells
[3] = molecular target: T2, TRAF6 (ubiquitin ligase, tumor necrosis …); assay: FLAG immunoprecipitation from HBP-treated Jurkat cells, immunoblot for TRAF6
Protocol: Briefly, cells were lysed in 50 mM Hepes-KOH pH 8.0, 100 mM KCl, 2 mM EDTA, 0.1% NP40, 10% glycerol. Soluble cell lysates were pre-cleared for 2 hr with mouse IgG agarose (Sigma) and immunoprecipitated overnight at 4° C. Proteins eluted using 0.5 M NH₄OH pH 11 (for mass-spectrometry), or 3× FLAG-peptide (Sigma) (immunoblot analysis).

[4] = molecular target: the molecule itself; assay: confocal microscopy of TIFA aggregates in HBP-treated 293T cells
[5] = molecular target: the molecule itself; assay: confocal microscopy of FLAG-TIFA aggregates in HBP-treated 293T cells

Row | Binder | binding result [1] | binding result [2] | binding result [3] | binding result [4] | binding result [5]
1 | B1 | no binding | binds | – | – | –
2 | B2 | – | – | no binding | no binding | –
3 | B3 | – | – | no binding | – | binds
4 | B4 | – | – | no binding | – | –
